Source: US20200199241A1 (Chugai, published 2020)
Numbering of substitutions follows the chain as printed. In names and notes the source's numbering stands.

T1: human FcγRIIa(R) (human, UniProt P12318 36-217)
T1 construct: also called FcgRIIaR; FcγRIIa type R
T1 chain: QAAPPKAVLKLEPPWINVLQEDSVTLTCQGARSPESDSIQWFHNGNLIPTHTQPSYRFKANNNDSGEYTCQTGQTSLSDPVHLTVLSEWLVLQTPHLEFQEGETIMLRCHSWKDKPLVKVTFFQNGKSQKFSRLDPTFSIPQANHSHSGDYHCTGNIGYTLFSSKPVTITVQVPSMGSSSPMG

T2: human FcγRIIa(H) (human, UniProt P12318 36-217)
T2 construct: also called FcgRIIaH; FcγRIIa type H
T2 sequence: T1 chain with R133H

T3: human FcγRIIb (human, UniProt P31994 43-217, limits assumed)
T3 construct: also called FcgRIIb
T3 sequence: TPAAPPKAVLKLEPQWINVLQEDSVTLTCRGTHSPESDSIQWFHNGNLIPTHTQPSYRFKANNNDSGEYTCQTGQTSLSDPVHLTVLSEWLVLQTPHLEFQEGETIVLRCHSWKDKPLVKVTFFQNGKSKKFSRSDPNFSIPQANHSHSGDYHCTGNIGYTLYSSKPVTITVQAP

B1: GpH7-B3 variant G237L/GpL16-k0 (antibody, human IgG1)
heavy: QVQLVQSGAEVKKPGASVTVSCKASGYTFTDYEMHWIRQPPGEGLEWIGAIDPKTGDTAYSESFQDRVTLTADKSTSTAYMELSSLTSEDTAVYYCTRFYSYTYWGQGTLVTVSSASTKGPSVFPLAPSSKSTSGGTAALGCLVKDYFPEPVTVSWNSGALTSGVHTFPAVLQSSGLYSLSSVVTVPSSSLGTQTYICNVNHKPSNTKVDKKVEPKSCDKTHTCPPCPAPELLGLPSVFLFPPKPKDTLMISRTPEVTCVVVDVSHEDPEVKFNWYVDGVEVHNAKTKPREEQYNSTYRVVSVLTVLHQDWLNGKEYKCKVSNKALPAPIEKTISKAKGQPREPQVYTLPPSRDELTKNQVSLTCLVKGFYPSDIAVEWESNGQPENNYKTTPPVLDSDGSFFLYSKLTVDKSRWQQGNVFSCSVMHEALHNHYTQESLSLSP
light: DIVMTQSPLSLPVTPGEPASISCQASESLVHSNRNTYLHWYLQKPGQSPQLLIYKVSNRFSGVPDRFSGSGSGTDFTLKISRVEAEDVGVYYCSQNTHVPPTFGQGTKVEIE
notes: copies: 2 + 2
B2: GpH7-B3 variant L234F/GpL16-k0 (antibody, human IgG1)
heavy: not shown
light: B1 light
notes: copies: 2 + 2
B3: GpH7-B3 variant G236Y/GpL16-k0 (antibody, human IgG1)
heavy: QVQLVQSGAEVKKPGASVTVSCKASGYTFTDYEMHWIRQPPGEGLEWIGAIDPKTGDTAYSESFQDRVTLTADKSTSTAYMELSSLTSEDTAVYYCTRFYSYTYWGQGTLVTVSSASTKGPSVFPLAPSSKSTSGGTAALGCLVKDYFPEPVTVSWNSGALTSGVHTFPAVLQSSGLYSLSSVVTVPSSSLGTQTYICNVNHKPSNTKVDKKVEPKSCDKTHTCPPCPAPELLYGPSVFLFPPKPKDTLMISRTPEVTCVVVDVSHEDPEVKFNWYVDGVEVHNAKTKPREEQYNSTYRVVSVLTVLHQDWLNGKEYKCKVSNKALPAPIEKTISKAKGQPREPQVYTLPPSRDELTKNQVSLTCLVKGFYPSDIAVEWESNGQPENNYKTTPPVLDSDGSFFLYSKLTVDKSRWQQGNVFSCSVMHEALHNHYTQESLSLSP
light: B1 light
notes: copies: 2 + 2
B4: GpH7-B3 variant L234P/GpL16-k0 (antibody, human IgG1)
heavy: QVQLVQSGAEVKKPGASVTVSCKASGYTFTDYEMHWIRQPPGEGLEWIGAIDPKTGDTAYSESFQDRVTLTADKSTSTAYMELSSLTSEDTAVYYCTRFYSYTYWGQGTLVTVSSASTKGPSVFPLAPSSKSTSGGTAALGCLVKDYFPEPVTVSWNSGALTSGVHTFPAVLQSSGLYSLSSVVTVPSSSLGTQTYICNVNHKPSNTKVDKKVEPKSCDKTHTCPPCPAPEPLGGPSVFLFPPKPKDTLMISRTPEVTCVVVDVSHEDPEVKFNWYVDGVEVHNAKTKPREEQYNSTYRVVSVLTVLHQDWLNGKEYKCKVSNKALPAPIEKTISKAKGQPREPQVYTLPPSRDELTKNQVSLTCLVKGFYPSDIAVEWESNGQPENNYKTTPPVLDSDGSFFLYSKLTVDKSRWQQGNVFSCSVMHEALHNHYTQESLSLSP
light: B1 light
notes: copies: 2 + 2
B5: GpH7-B3 variant L234M/GpL16-k0 (antibody, human IgG1)
heavy: not shown
light: B1 light
notes: copies: 2 + 2
B6: GpH7-B3 variant L234E/GpL16-k0 (antibody, human IgG1)
heavy: not shown
light: B1 light
notes: copies: 2 + 2
B7: GpH7-B3 variant L234Q/GpL16-k0 (antibody, human IgG1)
heavy: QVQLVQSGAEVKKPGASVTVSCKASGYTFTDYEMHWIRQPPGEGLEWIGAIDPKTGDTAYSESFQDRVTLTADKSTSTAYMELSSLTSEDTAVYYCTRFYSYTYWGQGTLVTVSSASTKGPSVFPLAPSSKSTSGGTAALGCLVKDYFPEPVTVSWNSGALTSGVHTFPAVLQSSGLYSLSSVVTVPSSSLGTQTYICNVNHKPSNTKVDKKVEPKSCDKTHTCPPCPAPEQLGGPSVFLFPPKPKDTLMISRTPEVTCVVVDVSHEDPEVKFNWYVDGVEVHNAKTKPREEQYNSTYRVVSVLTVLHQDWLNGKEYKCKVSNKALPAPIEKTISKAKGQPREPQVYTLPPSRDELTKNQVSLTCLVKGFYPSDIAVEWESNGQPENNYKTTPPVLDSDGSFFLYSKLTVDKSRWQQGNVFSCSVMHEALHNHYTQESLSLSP
light: B1 light
notes: copies: 2 + 2
B8: GpH7-B3 variant L234H/GpL16-k0 (antibody, human IgG1)
heavy: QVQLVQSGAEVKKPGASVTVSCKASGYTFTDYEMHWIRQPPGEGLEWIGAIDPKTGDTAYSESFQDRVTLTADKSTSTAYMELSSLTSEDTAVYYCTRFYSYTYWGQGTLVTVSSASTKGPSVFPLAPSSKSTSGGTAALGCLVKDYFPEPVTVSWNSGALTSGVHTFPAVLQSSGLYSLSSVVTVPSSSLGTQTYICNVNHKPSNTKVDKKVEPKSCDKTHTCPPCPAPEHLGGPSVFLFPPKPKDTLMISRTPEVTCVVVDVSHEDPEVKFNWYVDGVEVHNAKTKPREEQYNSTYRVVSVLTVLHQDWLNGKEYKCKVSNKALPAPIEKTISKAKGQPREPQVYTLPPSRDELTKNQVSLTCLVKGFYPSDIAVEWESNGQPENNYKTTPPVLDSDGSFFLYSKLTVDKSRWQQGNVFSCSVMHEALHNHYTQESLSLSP
light: B1 light
notes: copies: 2 + 2
B9: GpH7-B3 variant G237D/GpL16-k0 (antibody, human IgG1)
heavy: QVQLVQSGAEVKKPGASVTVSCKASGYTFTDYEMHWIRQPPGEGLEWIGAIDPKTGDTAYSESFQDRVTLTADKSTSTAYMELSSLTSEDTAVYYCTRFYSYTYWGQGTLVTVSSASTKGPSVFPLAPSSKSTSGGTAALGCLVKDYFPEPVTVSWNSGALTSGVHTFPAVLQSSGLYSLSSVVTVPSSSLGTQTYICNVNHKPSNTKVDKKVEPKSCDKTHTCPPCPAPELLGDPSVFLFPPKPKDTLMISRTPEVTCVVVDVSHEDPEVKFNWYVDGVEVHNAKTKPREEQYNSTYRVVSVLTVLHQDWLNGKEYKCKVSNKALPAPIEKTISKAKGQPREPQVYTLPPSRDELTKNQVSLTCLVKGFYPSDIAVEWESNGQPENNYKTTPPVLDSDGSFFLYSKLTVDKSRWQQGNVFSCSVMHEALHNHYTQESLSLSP
light: B1 light
notes: copies: 2 + 2
B10: GpH7-B3 variant G236Q/GpL16-k0 (antibody, human IgG1)
heavy: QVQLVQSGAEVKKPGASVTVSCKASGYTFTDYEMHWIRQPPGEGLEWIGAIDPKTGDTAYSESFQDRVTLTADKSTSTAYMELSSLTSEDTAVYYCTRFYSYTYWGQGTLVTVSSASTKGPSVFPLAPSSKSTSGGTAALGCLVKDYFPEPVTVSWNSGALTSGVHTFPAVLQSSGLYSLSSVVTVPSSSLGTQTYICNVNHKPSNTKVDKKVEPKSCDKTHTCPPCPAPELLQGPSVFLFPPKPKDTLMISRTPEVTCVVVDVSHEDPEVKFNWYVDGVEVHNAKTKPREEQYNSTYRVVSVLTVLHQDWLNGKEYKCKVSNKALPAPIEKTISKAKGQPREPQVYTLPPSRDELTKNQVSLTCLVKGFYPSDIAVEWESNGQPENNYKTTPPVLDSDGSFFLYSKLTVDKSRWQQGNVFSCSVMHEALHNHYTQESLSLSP
light: B1 light
notes: copies: 2 + 2
B11: GpH7-B3 variant G237Q/GpL16-k0 (antibody, human IgG1)
heavy: not shown
light: B1 light
notes: copies: 2 + 2
B12: GpH7-B3 variant L234R/GpL16-k0 (antibody, human IgG1)
heavy: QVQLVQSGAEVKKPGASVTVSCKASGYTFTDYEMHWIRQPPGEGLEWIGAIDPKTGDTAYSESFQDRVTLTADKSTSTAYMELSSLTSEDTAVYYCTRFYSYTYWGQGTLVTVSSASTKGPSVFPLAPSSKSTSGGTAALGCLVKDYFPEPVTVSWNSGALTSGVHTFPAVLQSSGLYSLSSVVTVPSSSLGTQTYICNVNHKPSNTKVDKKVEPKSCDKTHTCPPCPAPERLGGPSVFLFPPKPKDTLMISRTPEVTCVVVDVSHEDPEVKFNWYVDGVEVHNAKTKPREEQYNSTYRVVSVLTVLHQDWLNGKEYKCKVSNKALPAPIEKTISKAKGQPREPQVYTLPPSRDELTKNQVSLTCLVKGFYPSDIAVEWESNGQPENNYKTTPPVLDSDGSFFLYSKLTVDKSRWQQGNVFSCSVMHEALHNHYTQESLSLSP
light: B1 light
notes: copies: 2 + 2
B13: GpH7-B3 variant L234N/GpL16-k0 (antibody, human IgG1)
heavy: not shown
light: B1 light
notes: copies: 2 + 2
B14: GpH7-B3 variant G236P/GpL16-k0 (antibody, human IgG1)
heavy: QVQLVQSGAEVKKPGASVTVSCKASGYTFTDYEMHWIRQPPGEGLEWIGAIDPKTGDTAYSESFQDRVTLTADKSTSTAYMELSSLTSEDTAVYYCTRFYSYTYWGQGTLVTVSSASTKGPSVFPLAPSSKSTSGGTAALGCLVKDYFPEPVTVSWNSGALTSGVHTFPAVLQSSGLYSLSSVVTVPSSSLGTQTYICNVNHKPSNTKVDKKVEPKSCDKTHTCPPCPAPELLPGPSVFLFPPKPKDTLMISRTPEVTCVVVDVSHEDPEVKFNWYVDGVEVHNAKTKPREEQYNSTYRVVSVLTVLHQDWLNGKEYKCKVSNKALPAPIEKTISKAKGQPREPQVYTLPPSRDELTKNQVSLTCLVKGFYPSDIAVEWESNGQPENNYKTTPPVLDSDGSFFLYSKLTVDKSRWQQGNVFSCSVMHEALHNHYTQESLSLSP
light: B1 light
notes: copies: 2 + 2
B15: GpH7-B3 variant G237E/GpL16-k0 (antibody, human IgG1)
heavy: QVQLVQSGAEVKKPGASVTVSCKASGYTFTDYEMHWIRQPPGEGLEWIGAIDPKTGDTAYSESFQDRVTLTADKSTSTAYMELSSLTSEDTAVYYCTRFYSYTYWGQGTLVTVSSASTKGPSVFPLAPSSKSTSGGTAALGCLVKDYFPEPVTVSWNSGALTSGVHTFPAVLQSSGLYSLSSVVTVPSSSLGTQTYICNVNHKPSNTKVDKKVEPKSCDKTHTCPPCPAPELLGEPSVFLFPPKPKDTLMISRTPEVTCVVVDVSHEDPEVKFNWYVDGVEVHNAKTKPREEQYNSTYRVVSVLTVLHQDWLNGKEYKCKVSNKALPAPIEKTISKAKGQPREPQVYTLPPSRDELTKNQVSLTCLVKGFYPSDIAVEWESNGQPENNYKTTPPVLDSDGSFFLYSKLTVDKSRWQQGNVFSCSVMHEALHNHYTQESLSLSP
light: B1 light
notes: copies: 2 + 2

biological target: T4, human FcγRIa (human, UniProt P12314 16-292, limits assumed); experiment: SPR (Biacore);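 note: antibody variants captured on sensor chip, Fcγ receptor flowed over at 25 °C, bound receptor normalized to amount of captured antibody, expressed relative to reference antibody set as 100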
T4 construct: also called FcgRIa; FcγRI (CD64)
T4 sequence (P12314 16-292 limits assumed): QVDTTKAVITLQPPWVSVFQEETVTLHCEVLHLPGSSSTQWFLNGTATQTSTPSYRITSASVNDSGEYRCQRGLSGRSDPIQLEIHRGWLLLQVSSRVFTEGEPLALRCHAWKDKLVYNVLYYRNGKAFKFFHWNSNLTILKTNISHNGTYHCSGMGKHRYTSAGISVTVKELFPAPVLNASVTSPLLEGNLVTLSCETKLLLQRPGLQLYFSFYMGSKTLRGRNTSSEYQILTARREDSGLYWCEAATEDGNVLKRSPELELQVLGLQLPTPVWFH

| relative binding activity | Binder |
| --- | --- |
| 7 % of GpH7-B3/GpL16-k0 | B1 |
| 96 % of GpH7-B3/GpL16-k0 | B2 |
| 76 % of GpH7-B3/GpL16-k0 | B3 |
| 83 % of GpH7-B3/GpL16-k0 | B4 |
| 100 % of GpH7-B3/GpL16-k0 | B5 |
| 82 % of GpH7-B3/GpL16-k0 | B6 |
| 80 % of GpH7-B3/GpL16-k0 | B7 |
| 65 % of GpH7-B3/GpL16-k0 | B8 |
| 26 % of GpH7-B3/GpL16-k0 | B9 |
| 45 % of GpH7-B3/GpL16-k0 | B10 |
| 14 % of GpH7-B3/GpL16-k0 | B11 |
| 50 % of GpH7-B3/GpL16-k0 | B12 |
| 67 % of GpH7-B3/GpL16-k0 | B13 |
| 2 % of GpH7-B3/GpL16-k0 | B14 |
| 18 % of GpH7-B3/GpL16-k0 | B15 |

Biological target: T1, human FcγRIIa(R)
Experiment: SPR (Biacore);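 note: antibody variants captured on sensor chip, Fcγ receptor flowed over at 25 °C, bound receptor normalized to amount of captured antibody, expressed relative to reference antibody set as 100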

| relative binding activity | Binder |
| --- | --- |
| 58 % of GpH7-B3/GpL16-k0 | B1 |
| 52 % of GpH7-B3/GpL16-k0 | B2 |
| 22 % of GpH7-B3/GpL16-k0 | B3 |
| 41 % of GpH7-B3/GpL16-k0 | B4 |
| 65 % of GpH7-B3/GpL16-k0 | B5 |
| 48 % of GpH7-B3/GpL16-k0 | B6 |
| 18 % of GpH7-B3/GpL16-k0 | B7 |
| 21 % of GpH7-B3/GpL16-k0 | B8 |
| 74 % of GpH7-B3/GpL16-k0 | B9 |
| 38 % of GpH7-B3/GpL16-k0 | B10 |
| 15 % of GpH7-B3/GpL16-k0 | B11 |
| 0 % of GpH7-B3/GpL16-k0 | B12 |
| 36 % of GpH7-B3/GpL16-k0 | B13 |
| 12 % of GpH7-B3/GpL16-k0 | B14 |
| 23 % of GpH7-B3/GpL16-k0 | B15 |

biological target: T2, human FcγRIIa(H); experiment: SPR (Biacore);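 note: antibody variants captured on sensor chip, Fcγ receptor flowed over at 25 °C, bound receptor normalized to amount of captured antibody, expressed relative to reference antibody set as 100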

| relative binding activity | Binder |
| --- | --- |
| 1 % of GpH7-B3/GpL16-k0 | B1 |
| 62 % of GpH7-B3/GpL16-k0 | B2 |
| 86 % of GpH7-B3/GpL16-k0 | B3 |
| 45 % of GpH7-B3/GpL16-k0 | B4 |
| 57 % of GpH7-B3/GpL16-k0 | B5 |
| 21 % of GpH7-B3/GpL16-k0 | B6 |
| 16 % of GpH7-B3/GpL16-k0 | B7 |
| 29 % of GpH7-B3/GpL16-k0 | B8 |
| 0 % of GpH7-B3/GpL16-k0 | B9 |
| 80 % of GpH7-B3/GpL16-k0 | B10 |
| 0 % of GpH7-B3/GpL16-k0 | B11 |
| 2 % of GpH7-B3/GpL16-k0 | B12 |
| 35 % of GpH7-B3/GpL16-k0 | B13 |
| 22 % of GpH7-B3/GpL16-k0 | B14 |
| 1 % of GpH7-B3/GpL16-k0 | B15 |

biological target: T3, human FcγRIIb; experiment: SPR (Biacore);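 note: antibody variants captured on sensor chip, Fcγ receptor flowed over at 25 °C, bound receptor normalized to amount of captured antibody, expressed relative to reference antibody set as 100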

| relative binding activity | Binder |
| --- | --- |
| 51 % of GpH7-B3/GpL16-k0 | B1 |
| 68 % of GpH7-B3/GpL16-k0 | B2 |
| 16 % of GpH7-B3/GpL16-k0 | B3 |
| 33 % of GpH7-B3/GpL16-k0 | B4 |
| 53 % of GpH7-B3/GpL16-k0 | B5 |
| 62 % of GpH7-B3/GpL16-k0 | B6 |
| 19 % of GpH7-B3/GpL16-k0 | B7 |
| 24 % of GpH7-B3/GpL16-k0 | B8 |
| 95 % of GpH7-B3/GpL16-k0 | B9 |
| 19 % of GpH7-B3/GpL16-k0 | B10 |
| 5 % of GpH7-B3/GpL16-k0 | B11 |
| 0 % of GpH7-B3/GpL16-k0 | B12 |
| 44 % of GpH7-B3/GpL16-k0 | B13 |
| 1 % of GpH7-B3/GpL16-k0 | B14 |
| 18 % of GpH7-B3/GpL16-k0 | B15 |

biological target: T5, human FcγRIIIa(F) (human, UniProt P08637 17-208, limits assumed); experiment: SPR (Biacore)
T5 construct: also called FcgRIIIaF; allotype F158
T5 sequence (P08637 other isoform, or with tags, fused parts or gaps limits assumed): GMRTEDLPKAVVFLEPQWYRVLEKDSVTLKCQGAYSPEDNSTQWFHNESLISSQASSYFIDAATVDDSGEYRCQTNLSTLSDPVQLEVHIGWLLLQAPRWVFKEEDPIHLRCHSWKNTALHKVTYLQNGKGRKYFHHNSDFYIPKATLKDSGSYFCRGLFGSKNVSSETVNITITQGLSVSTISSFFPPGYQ

| relative binding activity | Binder |
| --- | --- |
| 0 % of GpH7-B3/GpL16-k0 | B1 |
| 49 % of GpH7-B3/GpL16-k0 | B2 |
| 39 % of GpH7-B3/GpL16-k0 | B3 |
| 45 % of GpH7-B3/GpL16-k0 | B4 |
| 50 % of GpH7-B3/GpL16-k0 | B5 |
| 63 % of GpH7-B3/GpL16-k0 | B6 |
| 25 % of GpH7-B3/GpL16-k0 | B7 |
| 32 % of GpH7-B3/GpL16-k0 | B8 |
| 0 % of GpH7-B3/GpL16-k0 | B9 |
| 8 % of GpH7-B3/GpL16-k0 | B10 |
| 0 % of GpH7-B3/GpL16-k0 | B11 |
| 4 % of GpH7-B3/GpL16-k0 | B12 |
| 47 % of GpH7-B3/GpL16-k0 | B13 |
| 1 % of GpH7-B3/GpL16-k0 | B14 |
| 0 % of GpH7-B3/GpL16-k0 | B15 |
